B1: RUBY1 (MYB-type transcription factor) from blood orange 'Tarocco' (natural protein, UniProt H6U1F1 1-262, looked up)
chain: MADSLGVRKGAWTGEEDDLLRKCIEKYGEAKWHQVPLRAGLHRCRKSCRLRWLNYLNPNIKRGEFAADEVDLILRLHKLLGNRWSLIVGRLPGRTANDVKNFWNTHLRKKVDKCCKNNKEMKAKAEKVEKINIIKPQPRTFAKNSQWLKGKGMTSNNLQLGDYNLGKQSTPSDHHHHHQQQQENETESVWWESFLFGDELDQQGISSSLSRPEEESTTANIFAEKSPVVTKVTENRVIEAGQSCPTDDFAFDAELWDLLNAK

Experiments:
[1] = target: CsTT8 (TT8 with the full-length open reading frame) from blood orange 'Tarocco' (Citrus sinensis cv. 'Tarocco' (blood orange))
[2] = target: Δ15-TT8 (alternative splicing transcript of CsTT8 with the fourth exon skipped) (Citrus sinensis cv. 'Tarocco' (blood orange))
Sequence of Δ15-TT8 (alternative splicing transcript of CsTT8 with the fourth exon skipped) (Citrus sinensis cv. 'Tarocco' (blood orange)) (main, as listed by the source mutant): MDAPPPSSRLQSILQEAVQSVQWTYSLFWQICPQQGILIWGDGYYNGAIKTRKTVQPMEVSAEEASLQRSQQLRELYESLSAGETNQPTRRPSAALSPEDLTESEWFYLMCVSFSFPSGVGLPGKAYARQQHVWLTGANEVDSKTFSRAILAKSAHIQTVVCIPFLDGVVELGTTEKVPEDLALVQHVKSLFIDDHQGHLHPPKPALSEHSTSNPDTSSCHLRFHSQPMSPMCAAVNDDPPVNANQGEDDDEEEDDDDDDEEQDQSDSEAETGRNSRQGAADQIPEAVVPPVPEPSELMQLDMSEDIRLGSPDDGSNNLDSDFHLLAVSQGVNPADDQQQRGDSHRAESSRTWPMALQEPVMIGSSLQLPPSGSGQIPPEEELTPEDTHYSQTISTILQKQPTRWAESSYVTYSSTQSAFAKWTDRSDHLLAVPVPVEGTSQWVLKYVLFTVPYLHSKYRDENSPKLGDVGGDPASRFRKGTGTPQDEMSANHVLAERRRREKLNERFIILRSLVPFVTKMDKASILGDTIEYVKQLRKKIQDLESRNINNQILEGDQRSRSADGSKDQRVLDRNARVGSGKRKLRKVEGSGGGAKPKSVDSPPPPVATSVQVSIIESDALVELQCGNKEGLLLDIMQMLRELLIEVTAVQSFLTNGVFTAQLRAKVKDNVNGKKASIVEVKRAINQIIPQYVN

[3] = target: CsTT8 (TT8 with the full-length open reading frame) from blood orange 'Tarocco' (Citrus sinensis cv. 'Tarocco' (blood …, UniProt A0A0U4H1K1 1-694)); test: cell-based or functional assay
Sequence of CsTT8 (TT8 with the full-length open reading frame) from blood orange 'Tarocco' (Citrus sinensis cv. 'Tarocco' (A0A0U4H1K1 entry or part of it): as the sequence (main, as listed by the source mutant) above

Molecule | dual luciferase reporter with the PH8 promoter in N. benthamiana leaves, effectors TT8 and MYB5, LUC/REN ratio [1] [LUC/REN] | dual luciferase reporter with the F3′H promoter in N. benthamiana leaves, effectors Δ15-TT8 and RUBY1, LUC/REN ratio [2] [LUC/REN] | dual luciferase reporter with the F3′H promoter in N. benthamiana leaves, effectors TT8 and RUBY1, LUC/REN ratio [3] [LUC/REN]
MYB5 (an MYB-type transcription factor) from sweet orange (natural protein) | 0.34 |  | 
B1 |  | 0.042 | 0.099
